Source: patent publication US9988424 (DUKE UNIVERSITY, dated 2018)
Like-named read-outs stand apart in the source and are kept apart here.

How the values were obtained:
gp70 C.1086 V1/V2 [1] = target: T1, gp70 C.1086 V1/V2 (HIV-1 V1V2 on murine leukemia virus gp70); assay: ELISA
T1 construct: also called C.gp70 1086C V1V2; C.1086gp70V1V2
T1 chain: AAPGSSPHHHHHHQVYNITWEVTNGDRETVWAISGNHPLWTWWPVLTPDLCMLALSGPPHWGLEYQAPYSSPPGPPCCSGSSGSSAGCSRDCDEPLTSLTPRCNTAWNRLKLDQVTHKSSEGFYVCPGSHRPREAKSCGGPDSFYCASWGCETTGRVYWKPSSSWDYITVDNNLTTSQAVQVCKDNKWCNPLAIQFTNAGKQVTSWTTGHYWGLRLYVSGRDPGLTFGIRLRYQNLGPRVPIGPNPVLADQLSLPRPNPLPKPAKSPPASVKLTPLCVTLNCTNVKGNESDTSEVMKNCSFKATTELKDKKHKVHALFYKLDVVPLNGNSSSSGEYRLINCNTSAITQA

gp70 C.1086 V1/V2 [2] = target: T1, gp70 C.1086 V1/V2; assay: ELISA
Env of AE.92TH023 virus = Env of AE.92TH023 virus (HIV-1); assay: cell-based or functional assay
Env of AE.CM244 virus = Env of AE.CM244 virus (HIV-1); assay: cell-based or functional assay
[3] = target: Env of 92TH023 K169Q virus (HIV-1); assay: cell-based or functional assay
[4] = target: Env of TH023.6.I181L virus (HIV-1); assay: cell-based or functional assay
Env of 703357.c02 virus = Env of 703357.c02 virus (HIV-1); assay: cell-based or functional assay
[5] = target: Env of 703357.2.Q169K virus (HIV-1); assay: cell-based or functional assay
[6] = target: Env of 703357.2.Q169KR170Q virus (HIV-1); assay: cell-based or functional assay
[7] = target: Env of 703357.2.I181L virus (HIV-1); assay: cell-based or functional assay
[8] = target: Env of 703357.2.Q169KI181L virus (HIV-1); assay: cell-based or functional assay
[9] = target: Env of 703357.2.Q169KR170QI181L virus (HIV-1); assay: cell-based or functional assay
Env of 427299.c12 virus = Env of 427299.c12 virus (HIV-1); assay: cell-based or functional assay
[10] = target: Env of 427299.c12.Q169K virus (HIV-1); assay: cell-based or functional assay
[11] = target: Env of 427299.c12.H81L virus (HIV-1); assay: cell-based or functional assay
[12] = target: Env of 427299.c12.KL.Q169K/I181L virus (HIV-1); assay: cell-based or functional assay
[13] = target: Env of CM244NW.4.K169Q virus (HIV-1); assay: cell-based or functional assay
[14] = target: Env of CM244NW.6.I181L virus (HIV-1); assay: cell-based or functional assay
AE.A244 gp120 delta 11 = target: T2, AE.A244 gp120 delta 11 (HIV-1); assay: ELISA
T2 construct: also called E.A244gp120Δ11; AE.A244 Δ11 gp120

[15] = target: T3, AE.A244 V1/V2 Tags N156QN160Q (HIV-1); assay: ELISA; markers as in the legend printed on D00157
T3 chain: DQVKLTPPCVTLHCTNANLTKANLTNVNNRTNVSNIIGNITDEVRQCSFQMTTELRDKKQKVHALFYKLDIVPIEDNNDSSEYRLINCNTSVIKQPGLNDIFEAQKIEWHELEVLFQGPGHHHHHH

B1: CH58 reverted unmutated ancestor antibody (antibody, V domains shown)
VH: EVQLVQSGAEVKKPGESLKISCKGSGYSFTSYWIGWVRQMPGKGLEWMGIIYPGDSDTRYSPSFQGQVTISADKSISTAYLQWSSLKASDTAMYYCARLGGRYYYDSSGYYYFDYWGQGTLVTVSS
VL: NFMLTQPHSVSESPGKTVTISCTRSSGSIASNYVQWYQQRPGSSPTTVIYEDNQRPSGVPDRFSGSIDSSSNSASLTISGLKTEDEADYYCQSYDSSSWVFGGGTKLTVL
notes: also called CH58 RUA; CH58_RUA
> 66.7 nM: EC50 (gp70 C.1086 V1/V2 [1]) | EC50 (gp70 C.1086 V1/V2 [2])
> 50 µg/mL: ID50 assayed in TZM-bl cells, TH023.6 (Env of AE.92TH023 virus) | ID50 assayed in TZM-bl cells, CM244.ec1 (Env of AE.CM244 virus) | ID50 assayed in TZM-bl cells, TH023.6.K169Q [3] | ID50 assayed in TZM-bl cells, TH023.6.I181L [4] | ID50 assayed in TZM-bl cells, 703357.c02 (Env of 703357.c02 virus) | ID50 assayed in TZM-bl cells, 703357.2.Q169K [5] | ID50 assayed in TZM-bl cells, 703357.2.Q169KR170Q [6] | ID50 assayed in TZM-bl cells, 703357.2.I181L [7] | ID50 assayed in TZM-bl cells, 703357.2.Q169KI181L [8] | ID50 assayed in TZM-bl cells, 703357.2.Q169KR170QI181L [9] | ID50 assayed in TZM-bl cells, 427299.c12 (Env of 427299.c12 virus) | ID50 assayed in TZM-bl cells, 427299.c12.Q169K [10] | ID50 assayed in TZM-bl cells, 427299.c12.H81L [11] | ID50 assayed in TZM-bl cells, 427299.c12.KL.Q169K/I181L [12] | ID50 assayed in TZM-bl cells, CM244NW.4.K169Q [13] | ID50 assayed in TZM-bl cells, CM244NW.6.I181L [14]

B2: 697D reverted unmutated ancestor antibody (antibody, V domains shown)
VH: QVQLVQSGAEVKKPGSSVKVSCKASGGTFSSYTISWVRQAPGQGLEWMGRIIPILGIANYAQKFQGRVTITADKSTSTAYMELSSLRSEDTAVYYCATSGVGLHFGYFDYWGQGTLVTVSS
VL: QSVLTQPPSVSGAPGQRVTISCTGSSSNIGAGYDVHWYQQLPGTAPKLLIYGNSNRPSGVPDRFSGSKSGTSASLAITGLQAEDEADYYCQSYDSSLSGYVFGTGTKVTVL
notes: also called 697D RUA
> 667 nM: EC50 (AE.A244 gp120 delta 11)

B3: PG9 reverted unmutated ancestor antibody (antibody, V domains shown)
VH: QVQLVESGGGVVQPGRSLRLSCAASGFTFSSYGMHWVRQAPGKGLEWVAVISYDGSNKYYADSVKGRFTISRDNSKNTLYLQMNSLRAEDTAVYYCAREAGGPDYRNGYNYYDFWSGYYNYYYMDVWGKGTTVTVSS
VL: QSALTQPASVSGSPGQSITISCTGTSSDVGSYNLVSWYQQHPGKAPKLMIYEVSKRPSGVSNRFSGSKSGNTASLTISGLQAEDEADYYCCSLTSTRRWVFGGGTKLTVL
notes: also called PG9 RUA; PG9_RUA
no binding (tested: 100 ug/ml): binding result [15]

B4: PG16 reverted unmutated ancestor antibody (antibody, V domains shown)
VH: QVQLVESGGGVVQPGRSLRLSCAASGFTFSSYGMHWVRQAPGKGLEWVAVISYDGSNKYYADSVKGRFTISRDNSKNTLYLQMNSLRAEDTAVYYCAREAGGPIWHDDVKYYDFNDGYYYYYYMDVWGKGTTVTVSS
VL: QSALTQPASVSGSPGQSITISCTGTSSDVGSYNLVSWYQQHPGKAPKLMIYEVSKRPSGVSNRFSGSKSGNTASLTISGLQAEDEADYYCCSLTDRSHRIFGGGTKLTVL
notes: also called PG16 RUA; PG16_RUA
no binding (tested: 100 ug/ml): binding result [15]
